The text below walks through data of PMC7045587.

Settings in all cases: control: wild type
A short description of one data set: activity at 30-90 °C.
A short description of the next data set: activity across pH 3-9.
The nature of data set [1]: DNS reducing-sugar assay, 60 °C.
The nature of data set [2]: Michaelis-Menten kinetics, 60 °C, pH 4.
Data set [3] is described as follows: thermal inactivation half-life at 80 °C.
Data set [4] in a line: thermal inactivation half-life at 90 °C.
Data set [5] can be described thus: residual activity after 200 min at 30-90 °C.
Data set [6] in a line: protein yield after purification from P. pastoris.

“Also recorded” adds a separate entry of the source.

B1: CTendo45: L47T (protein)
parent chain: MHLSQLALPLLLAAGAHAQGAQGTGRTTRYWDCCKPSCAWPGKSNALQPVQTCNAQDQPLNDGGNTRSGCDSGGSAFMCSNQSPWALNETLSYGWAAVRIAGQSEFNWCCACYELTFTSGPVAGKKMIVQATNTGGDLGSNHFDIAIPGGGVGIFNACTQQYGAPPNGWGERYGGIRSRSECDSFPEALKAGCYWRFDWFLGADNPDVSFKQVACPAAITAKSKCVRQRDVIDQTPTGPEIVPTWTP
With B1, in “activity at 30-90 °C” (glycan gained), the “other: optimal temperature of activity” value is listed as “no change”. For the same protein, the “other: optimal pH of activity” value in the data set “activity across pH 3-9” (glycan gained) is “no change”. Further, in data set [1] (glycan gained), the “enzymatic_activity, other: specific activity” value (from here on “enzymatic_activity, other”) is recorded as “increases, 1.36 ± 0.06 vs 1.21 ± 0.08; also recorded: increases, 2.17 ± 0.08 vs 2.07 ± 0.14”. Moreover, in data set [2] (glycan gained), the “enzymatic_activity, kcat_Km” value is “increases, 74.65 ± 1.36 vs 62.06 ± 1.25; also recorded: increases, 192.43 ± 1.85 vs 138.46 ± 2.07”. Also, the “stability_or_folding, half_life” value in data set [3] (glycan gained) is “increases, 230 vs 150; also recorded: increases, 210 vs 130”; in data set [4] (glycan gained), “increases, 55 vs 35; also recorded: increases, 45 vs 28”. Moreover, the stability_or_folding result in data set [5] (glycan gained) is listed as “increases”. Also, the expression_or_secretion entry in data set [6] (glycan gained) is recorded as “no change”.

B2: CTendo45: F143S (protein)
parent chain: MHLSQLALPLLLAAGAHAQGAQGTGRTTRYWDCCKPSCAWPGKSNALQPVQTCNAQDQPLNDGGNTRSGCDSGGSAFMCSNQSPWALNETLSYGWAAVRIAGQSEFNWCCACYELTFTSGPVAGKKMIVQATNTGGDLGSNHFDIAIPGGGVGIFNACTQQYGAPPNGWGERYGGIRSRSECDSFPEALKAGCYWRFDWFLGADNPDVSFKQVACPAAITAKSKCVRQRDVIDQTPTGPEIVPTWTP
Regarding B2, in “activity at 30-90 °C” (glycan gained), the “other: optimal temperature of activity” value is “no change”. Besides, the “other: optimal pH of activity” value in the data set “activity across pH 3-9” (glycan gained) is “no change”. Also, the expression_or_secretion entry in data set [6] (glycan gained) is reported as “no change”.

B3: CTendo45: R67S (protein)
parent chain: MHLSQLALPLLLAAGAHAQGAQGTGRTTRYWDCCKPSCAWPGKSNALQPVQTCNAQDQPLNDGGNTRSGCDSGGSAFMCSNQSPWALNETLSYGWAAVRIAGQSEFNWCCACYELTFTSGPVAGKKMIVQATNTGGDLGSNHFDIAIPGGGVGIFNACTQQYGAPPNGWGERYGGIRSRSECDSFPEALKAGCYWRFDWFLGADNPDVSFKQVACPAAITAKSKCVRQRDVIDQTPTGPEIVPTWTP
Take B3: in the data set “activity at 30-90 °C” (glycan gained), the “other: optimal temperature of activity” value is on record as “no change”. Moreover, in “activity across pH 3-9” (glycan gained), the “other: optimal pH of activity” value is recorded as “no change”. Moreover, in data set [1] (glycan gained), the “enzymatic_activity, other” value is given as “increases, 1.58 ± 0.12 vs 1.21 ± 0.08; also recorded: increases, 2.62 ± 0.13 vs 2.07 ± 0.14”. For the same protein, the “enzymatic_activity, kcat_Km” value in data set [2] (glycan gained) is “increases, 83.49 ± 1.25 vs 62.06 ± 1.25; also recorded: increases, 198.76 ± 2.17 vs 138.46 ± 2.07”. In addition, the “stability_or_folding, half_life” value in data set [3] (glycan gained) was “increases, 190 vs 150; also recorded: increases, 160 vs 130”; in data set [4] (glycan gained), “increases, 45 vs 35; also recorded: increases, 35 vs 28”. In addition, the stability_or_folding entry in data set [5] (glycan gained) is recorded as “increases”. Besides, the expression_or_secretion entry in data set [6] (glycan gained) was “no change”.

B4: CTendo45: Q56T (protein)
parent chain: MHLSQLALPLLLAAGAHAQGAQGTGRTTRYWDCCKPSCAWPGKSNALQPVQTCNAQDQPLNDGGNTRSGCDSGGSAFMCSNQSPWALNETLSYGWAAVRIAGQSEFNWCCACYELTFTSGPVAGKKMIVQATNTGGDLGSNHFDIAIPGGGVGIFNACTQQYGAPPNGWGERYGGIRSRSECDSFPEALKAGCYWRFDWFLGADNPDVSFKQVACPAAITAKSKCVRQRDVIDQTPTGPEIVPTWTP
Regarding B4, the “other: optimal temperature of activity” value in “activity at 30-90 °C” (glycan gained) is listed as “no change”. The “other: optimal pH of activity” value in “activity across pH 3-9” (glycan gained) is reported as “no change”. Moreover, in data set [1] (glycan gained), the “enzymatic_activity, other” value is given as “increases, 1.28 ± 0.10 vs 1.21 ± 0.08; also recorded: no change, 2.09 ± 0.15 vs 2.07 ± 0.14”. Further, in data set [2] (glycan gained), the “enzymatic_activity, kcat_Km” value is listed as “increases, 70.67 ± 1.74 vs 62.06 ± 1.25; also recorded: increases, 177.29 ± 1.47 vs 138.46 ± 2.07”. For the same protein, the “stability_or_folding, half_life” value in data set [3] (glycan gained) is given as “decreases, 110 vs 150; also recorded: decreases, 100 vs 130”; in data set [4] (glycan gained) it was “decreases, 20 vs 35; also recorded: decreases, 15 vs 28”. The stability_or_folding entry in data set [5] (glycan gained) is listed as “decreases”. Moreover, the expression_or_secretion result in data set [6] (glycan gained) is listed as “no change”.

B5: CTendo45: G63T (protein)
parent chain: MHLSQLALPLLLAAGAHAQGAQGTGRTTRYWDCCKPSCAWPGKSNALQPVQTCNAQDQPLNDGGNTRSGCDSGGSAFMCSNQSPWALNETLSYGWAAVRIAGQSEFNWCCACYELTFTSGPVAGKKMIVQATNTGGDLGSNHFDIAIPGGGVGIFNACTQQYGAPPNGWGERYGGIRSRSECDSFPEALKAGCYWRFDWFLGADNPDVSFKQVACPAAITAKSKCVRQRDVIDQTPTGPEIVPTWTP
Turning to B5, the “other: optimal temperature of activity” value in the data set “activity at 30-90 °C” (glycan gained) is “no change”. Further, the “other: optimal pH of activity” value in “activity across pH 3-9” (glycan gained) is given as “no change”. Further, the “enzymatic_activity, other” value in data set [1] (glycan gained) is listed as “decreases, 0.91 ± 0.08 vs 1.21 ± 0.08; also recorded: decreases, 1.71 ± 0.11 vs 2.07 ± 0.14”. The “stability_or_folding, half_life” value is on record as “decreases, 130 vs 150; also recorded: decreases, 110 vs 130” in data set [3] (glycan gained) and “decreases, 25 vs 35; also recorded: decreases, 20 vs 28” in data set [4] (glycan gained). Besides, the stability_or_folding entry in data set [5] (glycan gained) is on record as “decreases”. In addition, the expression_or_secretion entry in data set [6] (glycan gained) is “no change”.

B6: CTendo45: F143T (protein)
parent chain: MHLSQLALPLLLAAGAHAQGAQGTGRTTRYWDCCKPSCAWPGKSNALQPVQTCNAQDQPLNDGGNTRSGCDSGGSAFMCSNQSPWALNETLSYGWAAVRIAGQSEFNWCCACYELTFTSGPVAGKKMIVQATNTGGDLGSNHFDIAIPGGGVGIFNACTQQYGAPPNGWGERYGGIRSRSECDSFPEALKAGCYWRFDWFLGADNPDVSFKQVACPAAITAKSKCVRQRDVIDQTPTGPEIVPTWTP
On to B6, for which, in “activity at 30-90 °C” (glycan gained), the “other: optimal temperature of activity” value is reported as “no change”. Further, in “activity across pH 3-9” (glycan gained), the “other: optimal pH of activity” value is on record as “no change”. In addition, the expression_or_secretion result in data set [6] (glycan gained) is given as “no change”.

B7: CTendo45: T90A (protein)
parent chain: MHLSQLALPLLLAAGAHAQGAQGTGRTTRYWDCCKPSCAWPGKSNALQPVQTCNAQDQPLNDGGNTRSGCDSGGSAFMCSNQSPWALNETLSYGWAAVRIAGQSEFNWCCACYELTFTSGPVAGKKMIVQATNTGGDLGSNHFDIAIPGGGVGIFNACTQQYGAPPNGWGERYGGIRSRSECDSFPEALKAGCYWRFDWFLGADNPDVSFKQVACPAAITAKSKCVRQRDVIDQTPTGPEIVPTWTP
For the protein B7, in the data set “activity at 30-90 °C” (glycan lost), the “other: optimal temperature of activity” value is “no change”. Further, the “other: optimal pH of activity” value in “activity across pH 3-9” (glycan lost) is listed as “no change”. In addition, in data set [1] (glycan lost), the “enzymatic_activity, other” value is on record as “increases, 2.24 ± 0.18 vs 1.21 ± 0.08; also recorded: increases, 3.39 ± 0.21 vs 2.07 ± 0.14”. For the same protein, the “enzymatic_activity, kcat_Km” value in data set [2] (glycan lost) was “increases, 97.54 ± 2.13 vs 62.06 ± 1.25; also recorded: increases, 217.90 ± 2.83 vs 138.46 ± 2.07”. The “stability_or_folding, half_life” value in data set [3] (glycan lost) is given as “increases, 260 vs 150; also recorded: increases, 230 vs 130”; in data set [4] (glycan lost) it was “increases, 65 vs 35; also recorded: increases, 50 vs 28”. Also, the stability_or_folding result in data set [5] (glycan lost) is reported as “increases”. Further, the expression_or_secretion entry in data set [6] (glycan lost) was “no change”.

B8: CTendo45: W169S (protein)
parent chain: MHLSQLALPLLLAAGAHAQGAQGTGRTTRYWDCCKPSCAWPGKSNALQPVQTCNAQDQPLNDGGNTRSGCDSGGSAFMCSNQSPWALNETLSYGWAAVRIAGQSEFNWCCACYELTFTSGPVAGKKMIVQATNTGGDLGSNHFDIAIPGGGVGIFNACTQQYGAPPNGWGERYGGIRSRSECDSFPEALKAGCYWRFDWFLGADNPDVSFKQVACPAAITAKSKCVRQRDVIDQTPTGPEIVPTWTP
B8: the “other: optimal temperature of activity” value in the data set “activity at 30-90 °C” (glycan gained) is listed as “no change”. The “other: optimal pH of activity” value in “activity across pH 3-9” (glycan gained) was “no change”. Besides, the expression_or_secretion result in data set [6] (glycan gained) is “no change”.
